# Reference: publication PMC6895266, “Zika virus NS3 is a canonical RNA helicase stimulated by NS5 RNA polymerase”
# B1: Cy3-ssRNA 16-mer (ssRNA)
# RNA: GCGUCUUUACGGUGCU
# What was measured:
# [1] = biological target: ZIKV NS5, purified recombinant (UniProt A0A024B7W1); assay: co-immunoprecipitation (IP Myc) with purified proteins, western blot quantification; details: parent: est. 1.0; read off a plot
# [2] = biological target: NS3F (full-length NS3) WT (Zika virus, UniProt A0A2D0WX26 1504-2119); assay: fluorescence polarization; 5 mM MgCl2, no ATP; details: protein: recombinant; tags: His; Myc (anti-myc blot); label: Cy3 (printed before the 5' end); single strand
Molecule,ratio to parent [1],Kd [2]
"ZIKV full-length NS3 (NS3F, residues 2-617), purified recombinant N569A; E573A",0.16,–
B1,–,99 ± 7 nM
